Several values for one entry are separate records, joined by “and”; a condition that tells them apart may be missing. Equal values may be shown once.
B1: Loop B, P1(5bp) (structured_RNA)
RNA: GGUUAUCAUGCGGGCGAAAGUCUGUACCUCUGGCC
B2: Loop B, Fully Paired (structured_RNA)
RNA: GGUCUUAUCAUGCGGGCGAAAGUCUGUAUGAUGGGACC
B3: Loop B fully paired RNA duplex (dsRNA)
RNA 1: GGUCUUAUCAUGCGGGC
RNA 2: GCCCGCAUGAUAAGACC
B4: Loop B, Bulge(0+1) (structured_RNA)
RNA: GGUCUUAAGGUGCGGGCGAAAGUCUGUACCUCUGGGACC
B5: ES2 89-267 (structured_RNA)
RNA: GGCUGGAACAUCUGUUUCUAGCUUGUUGUUCCUCUUGGCUGCUUUUCAAUUGGAUUUCCUCGAGCAGGUCCCAGGCUUGUCACUGCAGCCAGGGUCUGUUAACCAUCACCACUGGUUCUACAUUAAGUAGGAGGUUCAGGGCUAAGCUAAUAACUCGCCUGCCUUUCUGACUGAUCACAG
B6: ES2 1-89 (structured_RNA)
RNA: GGAAGAAGUGAAAUCACUAUAUUUAGAAACGAAUGCUACCAUCCCACCCCAACUACAUGUUCAGGUUAAAUGCGUGCACAUCCUGGUAG
B7: env4 Cbl riboswitch (structured_RNA)
RNA: GGUGUUAAAAGCAUAGUGGGAAAGUGACGUGUAAUUCGUCCACAUUACUUGAUGCGGUUAUAGUCCCAAUGCCACCUAACACAAAGUACGAGCAAGGAGACUC
B8: ES2 89-178 (structured_RNA)
RNA: GGCUGGAACAUCUGUUUCUAGCUUGUUGUUCCUCUUGGCUGCUUUUCAAUUGGAUUUCCUCGAGCAGGUCCCAGGCUUGUCACUGCAGCCA
B9: ES2 267-354 (structured_RNA)
RNA: GGUGAUGUUCGCCGUGGCCACUUAUCAUGCGGGCUCCUUUGGGAGGGUGCUCUUCUUUGUCUGUACCUCUGGGUGGAAAGGGCGAAUUC
B10: tRNALeu(CAG) (structured_RNA)
RNA: GCGAAGGUGGCGGAAUUGGUAGACGCGCUAGCUUCAGGUGUUAGUGUCCUUACGGACGUGGGGGUUCAAGUCCCCCCCCUCGCACCAGGAUCU
B11: ES2 179-267 (structured_RNA)
RNA: GGGUCUGUUAACCAUCACCACUGGUUCUACAUUAAGUAGGAGGUUCAGGGCUAAGCUAAUAACUCGCCUGCCUUUCUGACUGAUCACAG
B12: ES2 179-354 (structured_RNA)
RNA: GGGUCUGUUAACCAUCACCACUGGUUCUACAUUAAGUAGGAGGUUCAGGGCUAAGCUAAUAACUCGCCUGCCUUUCUGACUGAUCACAGUGAUGUUCGCCGUGGCCACUUAUCAUGCGGGCUCCUUUGGGAGGGUGCUCUUCUUUGUCUGUACCUCUGGGUGGAAAGGGCGAAUUC
B13: ES2 1-178 (structured_RNA)
RNA: GGAAGAAGUGAAAUCACUAUAUUUAGAAACGAAUGCUACCAUCCCACCCCAACUACAUGUUCAGGUUAAAUGCGUGCACAUCCUGGUAGCUGGAACAUCUGUUUCUAGCUUGUUGUUCCUCUUGGCUGCUUUUCAAUUGGAUUUCCUCGAGCAGGUCCCAGGCUUGUCACUGCAGCCA
B14: xpt-pbuX riboswitch (structured_RNA)
RNA: GGACAUAUAAUCGCGUGGAUAUGGCACGCAAGUUUCUACCGGGCACCGUAAAUGUCCGACUAUGUCC
B15: Loop B, Bulge(2+3) (structured_RNA)
RNA: GGUCUUAUCGUGCGGGCGAAAGUCUGUACCUCUGGGACC
B16: Loop B, Bulge(1+2) (structured_RNA)
RNA: GGUCUUAUGGUGCGGGCGAAAGUCUGUACCUCUGGGACC
B17: Loop A (structured_RNA)
RNA: GGUCGCCGUGGCCACUUCGAAAGGGGUGGAAAGGGCGACC
B18: Loop B, P2(5bp) (structured_RNA)
RNA: GGUCUUAUCAUGCGCGAAAGUGUACCUCUGGGACC
B19: Loop B, P2(3bp) (structured_RNA)
RNA: GGUCUUAUCAUGCGAAAGUACCUCUGGGACC
B20: Loop C (structured_RNA)
RNA: GGUGGGCUCCUUUGGGAGGGUGCUCUUCUUUGUCUACC
B21: Loop B, P1(3bp) (structured_RNA)
RNA: GGAUCAUGCGGGCGAAAGUCUGUACCUCUCC
B22: Loop B, P1/2(3bp) (structured_RNA)
RNA: GGUAUCAUGCGGAAACGCACCUCUACC
B23: Loop B (structured_RNA)
RNA: GGUCUUAUCAUGCGGGCGAAAGUCUGUACCUCUGGGACC
B24: env8 ssRNA (ssRNA)
RNA: AUACAACAUACAACAUACAACAUACAACAUACAACA
B25: Loop B fully paired RNA duplex (Fig. 3g) (dsRNA)
RNA 1: GGUCUUAUCAUGCGGGC
RNA 2: GCCCGCAUGAUAAGACC
B26: CCND1_SM6 dsDNA (dsDNA)
DNA 1: CGCGCACTACAGCCCGGGT
DNA 2: ACCCGGGCTGTAGTGCGCG
B27: DPPA4 enhancer dsDNA (dsDNA)
DNA 1: CGCGCATTTGTACCCGGGT
DNA 2: ACCCGGGTACAAATGCGCG
B28: SOX2 enhancer dsDNA (dsDNA)
DNA 1: CGCGCCATTGTGCCCGGGT
DNA 2: ACCCGGGCACAATGGCGCG
B29: FGF4 enhancer dsDNA (dsDNA)
DNA 1: CGCGCCTTTGTTCCCGGGT
DNA 2: ACCCGGGAACAAAGGCGCG
B30: CCND1_SM1 dsDNA (dsDNA)
DNA 1: CGCGCCCTCTTCCCCGGGT
DNA 2: ACCCGGGGAAGAGGGCGCG
B31: 13 bp hairpin (structured_RNA)
RNA: GGUCCAUGCGGGCGAAAGUCUGUAUGGACC
B32: 9 bp hairpin (structured_RNA)
RNA: GGUCCAUGCGAAAGUAUGGACC
B33: 5 bp hairpin (structured_RNA)
RNA: GGUCCGAAAGGACC

Each binder was assayed against T1, Sox2-HMG (Homo sapiens, UniProt P48431 40-123) (assay: fluorescence anisotropy; 10 mM Tris-HEPES pH 7.5, 135 mM KCl, 15 mM NaCl, 1 mM DTT, 8% Ficoll, 0.05% NP-40, 0.1 mg/mL BSA; 2 nM DNA or 3 nM RNA; room temperature (stated for competition)). Conditions: protein: recombinant; tags: N-terminal His6, thrombin cleaved; label: 3' fluorescein; hairpin.
T1 sequence (P48431 40-123): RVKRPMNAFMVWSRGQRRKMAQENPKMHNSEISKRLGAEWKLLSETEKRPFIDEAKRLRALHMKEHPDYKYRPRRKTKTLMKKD

Binder | Kd [nM]
B1 | 12.8 ± 1.8
B2 | 15 ± 2

Same assay, conditions: protein: recombinant; tags: N-terminal His6, thrombin cleaved; label: FAM on one strand; blunt

Binder | Kd [nM]
B3 | 54 ± 9

What follows are binders tested against T1, Sox2-HMG (assay: competition; unlabeled RNA vs labeled FGF4 DNA; 10 mM Tris-HEPES pH 7.5, 135 mM KCl, 15 mM NaCl, 1 mM DTT, 8% Ficoll, 0.05% NP-40, 0.1 mg/mL BSA; 2 nM DNA or 3 nM RNA; room temperature (stated for competition)). Conditions: protein: recombinant; tags: N-terminal His6, thrombin cleaved; label: 3' fluorescein; hairpin.

Binder | Ki [nM]
B4 | 13 ± 4

What follows are binders tested against T1, Sox2-HMG (assay: EMSA; 10 mM Tris-HEPES pH 7.5, 135 mM KCl, 15 mM NaCl, 1 mM DTT, 8% Ficoll, 0.05% NP-40, 0.1 mg/mL BSA; 2 nM DNA or 3 nM RNA; room temperature (stated for competition)). Conditions: protein: recombinant; tags: N-terminal His6, thrombin cleaved; label: 3' fluorescein; hairpin.

Binder | Kd [nM]
B2 | 20 ± 4

Each binder was assayed against Sox2-HMG (thrombin cleaved) (Homo sapiens, UniProt P48431 38-121) (assay: fluorescence anisotropy; 10 mM Tris-HEPES pH 7.5, 8% Ficoll, 0.05% NP-40, 135 mM KCl, 15 mM NaCl, 1 mM DTT, 0.1 mg/mL BSA; 2 nM DNA or 3 nM RNA). Conditions: protein: recombinant; tags: N-terminal GSHM left after thrombin cleavage of His6; label: 3' fluorescein.
Chain of Sox2-HMG (thrombin cleaved) (P48431 other isoform, or with tags, fused parts or gaps): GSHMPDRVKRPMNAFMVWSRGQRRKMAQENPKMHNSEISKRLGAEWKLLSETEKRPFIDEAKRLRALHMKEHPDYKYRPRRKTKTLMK

Binder | Kd [nM]
B5 | 32.4 ± 6.56
B6 | 22.2 ± 3.26
B7 | 32.4 ± 1.08
B8 | 13.4 ± 1.63
B9 | 10.3 ± 2.03
B10 | 26.5 ± 5.62
B11 | 11.5 ± 2.68
B12 | 11.2 ± 0.792
B13 | 29.7 ± 4.07
B14 | 25.4 ± 2.54

Same assay, conditions: protein: recombinant; tags: N-terminal GSHM left after thrombin cleavage of His6; label: 3' fluorescein; hairpin

Binder | Kd [nM]
B1 | 12.8 ± 1.84
B4 | 10 ± 1.66
B15 | 13.6 ± 2.46
B16 | 12 ± 1.98
B2 | 14.7 ± 1.68
B17 | 11.3 ± 2.5
B18 | 9.6 ± 1.32
B19 | 11.4 ± 1.46
B20 | 11.2 ± 1.57
B21 | 10.3 ± 1.94
B22 | 10.6 ± 1.82

Same assay, conditions: protein: recombinant; tags: N-terminal GSHM left after thrombin cleavage of His6; label: 3' fluorescein; hairpin with internal loop

Binder | Kd [nM]
B23 | 10 ± 1.68

Same assay, conditions: protein: recombinant; tags: N-terminal GSHM left after thrombin cleavage of His6; label: 3' fluorescein; unstructured

Binder | Kd [nM]
B24 | 502 ± 123

Same assay, conditions: protein: recombinant; tags: N-terminal GSHM left after thrombin cleavage of His6; label: FAM on one strand

Binder | Kd [nM]
B25 | 35.1 ± 2.81

Same assay, conditions: protein: recombinant; tags: N-terminal GSHM left after thrombin cleavage of His6; label: FAM; only (+) strand given

Binder | Kd
B26 | 23.8 ± 5.4 nM
B27 | 3.4 ± 0.954 nM
B28 | 0.867 ± 0.219 nM
B29 | 0.937 nM and 0.85 nM
B30 | 9.77 ± 1.07 nM

The binders below were run against Sox2 full length (Homo sapiens, UniProt P48431 1-317) in the same assay as above. Conditions: protein: recombinant; tags: N-terminal His6 and thrombin site (retained); label: 3' fluorescein; unstructured.
Chain of Sox2 full length (P48431 whole entry): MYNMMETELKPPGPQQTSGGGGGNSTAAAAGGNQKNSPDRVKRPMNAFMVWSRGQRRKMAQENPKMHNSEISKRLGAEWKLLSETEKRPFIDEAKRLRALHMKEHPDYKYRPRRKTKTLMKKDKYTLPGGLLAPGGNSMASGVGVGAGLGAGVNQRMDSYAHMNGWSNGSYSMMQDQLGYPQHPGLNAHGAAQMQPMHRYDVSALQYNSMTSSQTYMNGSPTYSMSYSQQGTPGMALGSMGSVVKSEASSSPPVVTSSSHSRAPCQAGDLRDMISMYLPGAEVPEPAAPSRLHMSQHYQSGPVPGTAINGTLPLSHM

Binder | Kd [nM]
B24 | 512 ± 76.5

Same assay, conditions: protein: recombinant; tags: N-terminal His6 and thrombin site (retained); label: FAM; only (+) strand given

Binder | Kd [nM]
B29 | 2.1 ± 0.599

Each binder was assayed against Sox2-HMG (HRV 3C cleaved) (Homo sapiens, UniProt P48431 38-121) in the same assay as above. Conditions: protein: recombinant; tags: N-terminal GPHM left after removal of His8-MBP; label: 3'-FAM; hairpin.
Chain of Sox2-HMG (HRV 3C cleaved) (P48431 other isoform, or with tags, fused parts or gaps): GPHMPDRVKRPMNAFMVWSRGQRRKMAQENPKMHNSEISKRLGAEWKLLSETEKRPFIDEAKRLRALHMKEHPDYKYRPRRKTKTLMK

Binder | Kd [nM]
B31 | 83 ± 9.8
B32 | 54 ± 6.94
B33 | 71 ± 12.1

Reference: publication PMC7156710, “The Sox2 transcription factor binds RNA”
